From US20140086829A1 (BIOREC S A, published 2014)

Target: T1, human GST-VEGF (human, UniProt P15692-9 27-147)
T1 construct: also called GST-VEGF humano; not shown: GST fusion partner
T1 sequence (looked up): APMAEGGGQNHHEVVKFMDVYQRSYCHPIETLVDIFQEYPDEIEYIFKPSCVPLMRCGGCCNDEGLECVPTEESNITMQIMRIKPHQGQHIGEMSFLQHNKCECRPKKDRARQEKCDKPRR
Assay: competition ELISA on coated GST-VEGF; soluble scFv 2H1 titrated; competitor phage scFv 3E4

B1: soluble scFv 2H1 antibody fragment (scFv, from another filing)
scFv: QQVQLVQSGAEVKKPGESLKISCKGSGYSFTSYWIGWVRQMPGKGLEWMGIIYPGDSDTRYSPSFQGQVTISADKSISTAYLQWSSLKASDTAMYYCARLVVRDTEIWGQGTMVTVSSAPQAKSSGSGSESKVDQAVVTQEPSLTVSPGGTVTLTCASSIGAVTSGNYPNWFQQRPGQPPRALIYSTSNKHSWTPARFSGSLLGGKAALTLSGAQPEDEAEYYCLLSYSGARPVFGGGTKLTVLGAAAGSEQKLISEEDLNSHHHHHH
**Q.** For B1, which IC50 is on record?
**A.** 13.5 µg/mL
